Measurements from publication PMC10397247.
One block for each binder: values may come before it.

Assays:
Experiment in all cases: two-hybrid library CCNG1;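 note: natural log of median RNA to DNA barcode read ratio; higher means stronger binding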
P6mSN = target: T1, P6mSN
T1 chain: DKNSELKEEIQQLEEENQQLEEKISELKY

P8mSN = target: T2, P8mSN
T2 chain: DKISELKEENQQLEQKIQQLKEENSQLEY

P7mSN = target: T3, P7mSN
T3 chain: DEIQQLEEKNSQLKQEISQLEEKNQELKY

P9mSN = target: T4, P9mSN
T4 chain: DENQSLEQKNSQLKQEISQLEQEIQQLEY

P8bHq = target: T5, P8bHq
T5 chain: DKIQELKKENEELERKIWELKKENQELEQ

P7bHq = target: T6, P7bHq
T6 chain: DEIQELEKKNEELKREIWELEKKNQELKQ

P5bHq = target: T7, P5bHq
T7 chain: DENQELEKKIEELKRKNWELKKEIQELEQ

P6bHq = target: T8, P6bHq
T8 chain: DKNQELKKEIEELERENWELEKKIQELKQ

P9bHq = target: T9, P9bHq
T9 chain: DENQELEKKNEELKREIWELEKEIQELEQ

4H3364-bH = target: T10, 4H3364-bH
T10 chain: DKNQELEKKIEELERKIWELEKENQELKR

4H3297-bH = target: T11, 4H3297-bH
T11 chain: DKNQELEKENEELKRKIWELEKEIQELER

4H491-bA = target: T12, 4H491-bA
T12 chain: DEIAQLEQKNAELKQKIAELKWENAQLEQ

4H2859-bH = target: T13, 4H2859-bH
T13 chain: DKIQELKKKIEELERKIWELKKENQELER

4H3041-bH = target: T14, 4H3041-bH
T14 chain: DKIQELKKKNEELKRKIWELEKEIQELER

4H796-bH = target: T15, 4H796-bH
T15 chain: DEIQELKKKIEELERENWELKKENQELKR

4H2931-bH = target: T16, 4H2931-bH
T16 chain: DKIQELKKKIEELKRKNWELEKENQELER

4H56-bH = target: T17, 4H56-bH
T17 chain: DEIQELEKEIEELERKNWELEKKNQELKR

4H932-bH = target: T18, 4H932-bH
T18 chain: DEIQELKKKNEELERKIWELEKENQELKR

4H3381-bH = target: T19, 4H3381-bH
T19 chain: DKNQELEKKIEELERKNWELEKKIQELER

4H949-bH = target: T20, 4H949-bH
T20 chain: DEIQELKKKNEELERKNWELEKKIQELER

4H349-bH = target: T21, 4H349-bH
T21 chain: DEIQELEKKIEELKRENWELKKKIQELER

4H730-bH = target: T22, 4H730-bH
T22 chain: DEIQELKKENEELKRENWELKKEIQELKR

interaction score (P6mSN): 0.276 | interaction score (P8mSN): -1.19 | interaction score (P7mSN): -0.951 | interaction score (P9mSN): -0.248
Binder: DKNSELKEEIQQLEEENQQLEEKISELKY [P6mSN]

interaction score (P8bHq): 0.944 | interaction score (P7bHq): -0.58 | interaction score (P5bHq): -1.33 | interaction score (P6bHq): 0.519 | interaction score (P9bHq): -0.517
Binder: DENQELEKKIEELKRKNWELKKEIQELEQ [P5bHq]

interaction score (4H3364-bH): 1.02 | interaction score (4H3297-bH): 0.299 | interaction score (4H491-bA): 1.08 | interaction score (4H2859-bH): 1.11 | interaction score (4H3041-bH): 1.2 | interaction score (4H796-bH): -0.548 | interaction score (4H2931-bH): -0.182 | interaction score (4H56-bH): 0.547 | interaction score (4H932-bH): -0.5 | interaction score (4H3381-bH): 0.199 | interaction score (4H949-bH): -1.01 | interaction score (4H349-bH): -0.11 | interaction score (4H730-bH): -0.682
Binder: DKIQELKKKIEELERKIWELKKENQELER [4H2859-bH]
